# Laboratory results from patent US20130045305A1.
# B1: Hgt1p of Saccharomyces cerevisiae (protein)
# chain: MSTIYRESDSLESEPSPTPTTIPIQINMEEEKKDAFVKNIDEDVNNLTATTDEEDRDPESQKFDRHSIQEEGLVWKGDPTYLPNSPYPEVRSAVSIEDDPTIRLNHWRTWFLTTVFVVVFAGVNQFFSLRYPSLEINFLVAQVVCYPIGRILALLPDWKCSKVPFFDLNPGPFTKKEHAVVTIAVALTSSTAYAMYILNAQGSFYNMKLNVGYQFLLVWTSQMIGYGAAGLTRRWVVNPASSIWPQTLISVSLFDSLHSRKVEKTVANGWTMPRYRFFLIVLIGSFIWYWVPGFLFTGLSYFNVILWGSKTRHNFIANTIFGTQSGLGALPITFDYTQVSQAMSGSVFATPFYVSANTYASVLIFFVIVLPCLYFTNTWYAKYMPVISGSTYDNTQNKYNVTKILNEDYSINLEKYKEYSPVFVPFSYLLSYALNFAAVIAVFVHCILYHGKDIVAKFKDRKNGGTDIHMRIYSKNYKDCPDWWYLLLQIVMIGLGFVAVCCFDTKFPAWAFVIAILISLVNFIPQGILEAMTNQHVGLNIITELICGYMLPLRPMANLLFKLYGFIVMRQGLNLSRDLKLAMYMKVSPRLIFAVQIYATIISGMVNVGVQEWMMHNIDGLCTTDQPNGFTCANGRTVFNASIIWSLPKYLFSSGRIYNPLMWFFLIGLLFPLAVYAVQWKFPKFKFAKHIHTPVFFTGPGNIPPSTPYNYSLFFAMSFCLNLIRKRWRAWFNKYNFVMGAGVEAGVAISVVIIFLCVQYPGGKLSWWGNNVWKRTYDNDYKKFYTLKKGETFGYDKWW
# Tests used:
# Val-Gly [1] = biological target: Val-Gly
# glutathione [2] = biological target: glutathione
# Val-Gly [3] = biological target: Val-Gly; remark: listed apart in the source
# glutathione [4] = biological target: glutathione; remark: listed apart in the source
molecule,measurement,setting,value
Gsh2p (glutathione synthetase) of Saccharomyces cerevisiae (enzyme),"γ-EVG, µg 1^-1 OD600^-1, formed in cells cultured with 100 ppm γ-Glu-Val, strain S288C ura3Δ227/YEp24-PTDH3-GSH2 (µg 1^-1 OD600^-1)",γ-Glu-Val,705
"γ-Glutamyltranspeptidase from equine kidney, Sigma, Code G9270-100UN (enzyme)","γ-Glu-Val-Gly (ppm) in the reaction mixture after reaction with γ-GTP, 4000 ppm Val-Gly added",Val-Gly [1],340 ppm
same,"GSH (ppm) in the reaction mixture after reaction with γ-GTP, no Val-Gly added",glutathione [2],432 ppm
"Glutaminase Daiwa SD-C100S, Daiwa kasei (enzyme)","γ-Glu-Val-Gly (ppm) in the reaction mixture after reaction with glutaminase, 4000 ppm Val-Gly added",Val-Gly [3],16 ppm
same,"GSH (ppm) in the reaction mixture after reaction with glutaminase, no Val-Gly added",glutathione [4],3.1 ppm
B1,"intracellular content of γ-Glu-nVal-Gly on the dry weight cell, 100 ppm added",γ-Glu-nVal-Gly,2.84%
